The target of experiment [1] is T1, fibrin (Homo sapiens, UniProt P02671+P02675+P02679).
T1 construct: purchased Kabi Vitrum
T1 sequence (P02671 20-644 isoform P02671-2 limits assumed): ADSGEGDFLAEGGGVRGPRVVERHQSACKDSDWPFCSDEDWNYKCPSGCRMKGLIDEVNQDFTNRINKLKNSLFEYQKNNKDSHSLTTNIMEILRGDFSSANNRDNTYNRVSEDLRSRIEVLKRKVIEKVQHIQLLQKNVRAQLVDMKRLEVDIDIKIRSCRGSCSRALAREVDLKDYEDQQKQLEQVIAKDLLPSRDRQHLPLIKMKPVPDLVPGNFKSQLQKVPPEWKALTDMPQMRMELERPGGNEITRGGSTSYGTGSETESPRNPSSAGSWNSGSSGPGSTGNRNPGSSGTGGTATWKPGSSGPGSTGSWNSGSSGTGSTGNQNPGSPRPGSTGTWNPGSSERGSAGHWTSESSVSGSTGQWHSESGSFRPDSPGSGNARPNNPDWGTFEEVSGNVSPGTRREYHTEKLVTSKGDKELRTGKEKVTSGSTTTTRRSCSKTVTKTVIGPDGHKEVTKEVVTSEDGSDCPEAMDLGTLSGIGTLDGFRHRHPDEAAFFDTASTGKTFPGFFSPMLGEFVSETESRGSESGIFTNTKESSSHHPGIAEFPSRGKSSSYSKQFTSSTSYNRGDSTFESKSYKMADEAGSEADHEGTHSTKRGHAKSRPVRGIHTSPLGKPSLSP
T1 sequence (P02675 45-491 limits assumed): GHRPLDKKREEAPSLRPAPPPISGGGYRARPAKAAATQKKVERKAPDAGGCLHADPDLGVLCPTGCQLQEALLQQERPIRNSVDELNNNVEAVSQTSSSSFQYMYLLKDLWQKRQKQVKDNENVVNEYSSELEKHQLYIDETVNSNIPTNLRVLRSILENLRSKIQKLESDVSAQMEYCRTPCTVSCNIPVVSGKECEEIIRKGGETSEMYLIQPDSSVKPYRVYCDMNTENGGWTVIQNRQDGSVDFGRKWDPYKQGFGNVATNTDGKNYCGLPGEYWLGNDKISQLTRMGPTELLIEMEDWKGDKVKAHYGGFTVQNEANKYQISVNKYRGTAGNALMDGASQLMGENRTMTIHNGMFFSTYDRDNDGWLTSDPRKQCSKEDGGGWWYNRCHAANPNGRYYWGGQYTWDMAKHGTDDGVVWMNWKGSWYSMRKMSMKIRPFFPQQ
T1 sequence (P02679 27-437 isoform P02679-2 limits assumed): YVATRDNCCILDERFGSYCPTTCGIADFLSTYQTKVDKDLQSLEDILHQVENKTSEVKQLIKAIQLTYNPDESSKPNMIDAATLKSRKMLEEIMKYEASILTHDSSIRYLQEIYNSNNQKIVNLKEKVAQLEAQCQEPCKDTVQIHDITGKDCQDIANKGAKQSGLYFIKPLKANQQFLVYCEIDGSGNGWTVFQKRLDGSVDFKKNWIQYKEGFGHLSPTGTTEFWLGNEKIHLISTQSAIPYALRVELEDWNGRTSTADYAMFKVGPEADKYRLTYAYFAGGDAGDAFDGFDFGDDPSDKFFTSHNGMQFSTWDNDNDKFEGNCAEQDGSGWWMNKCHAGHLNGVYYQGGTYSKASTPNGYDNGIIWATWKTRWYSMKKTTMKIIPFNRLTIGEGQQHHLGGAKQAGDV
Put plainly: Fibrin binding: binding of tPA to fibrin, tPA antigen in supernatant by ELISA. The conditions noted are these: 15 μg/ml peptide; 200 ng/ml single chain melanoma tPA, 200 μg/ml human fibrinogen; no peptide = 48. The method, then: Binding of tPA to fibrin was measured using the conventional method of Rijken et al., J. Biol. Chem. 257, 2920-2925 (1982). This method involves mixing thrombin with a solution containing tPA and fibrinogen, centrifuging the resulting clot and measuring the concentration of tPA antigen in the supernatant. In a final volume of 200 μl, the following were combined: 200 ng/ml single chain melanoma tPA, 200 μg/ml human fibrinogen, 15 μg/ml tPA peptide, 1.1 mg/ml bovine serum albumin, 0.55 mg/ml bovine gamma globulin and 10 mM ε-amino caproic acid in PBSAT. Controls omitted fibrinogen, peptide or both. Mixtures were clotted by the addition of 1 unit/ml bovine thrombin, incubated one hour at room temperature and centrifuged. tPA antigen in the supernatant was measured by conventional ELISA and the percentage bound calculated by difference using the antigen level of a control mixture with no fibrinogen as 0% bound. […] An ELISA assay kit for tPA and PAI-1 was purchased from American Diagnostica Inc. and assays were performed according to printed protocols supplied by the manufacturer with the kit except that a single lot of melanoma tPA from American Diagnostica Inc. (product 111, lot 47-01) was used as the antigen standard throughout this work and 5.0 mg/ml of BSA and 2.5 mg/ml of bovine gamma globulin were included in ELISA buffers.
(In general: In an ELISA, binding on a coated surface is turned into a signal by an enzyme label.)

In experiment [2] the target is T2, PAI-1 (Homo sapiens, UniProt P05121).
T2 construct: purchased American Diagnostica, Inc
T2 sequence (P05121 24-402): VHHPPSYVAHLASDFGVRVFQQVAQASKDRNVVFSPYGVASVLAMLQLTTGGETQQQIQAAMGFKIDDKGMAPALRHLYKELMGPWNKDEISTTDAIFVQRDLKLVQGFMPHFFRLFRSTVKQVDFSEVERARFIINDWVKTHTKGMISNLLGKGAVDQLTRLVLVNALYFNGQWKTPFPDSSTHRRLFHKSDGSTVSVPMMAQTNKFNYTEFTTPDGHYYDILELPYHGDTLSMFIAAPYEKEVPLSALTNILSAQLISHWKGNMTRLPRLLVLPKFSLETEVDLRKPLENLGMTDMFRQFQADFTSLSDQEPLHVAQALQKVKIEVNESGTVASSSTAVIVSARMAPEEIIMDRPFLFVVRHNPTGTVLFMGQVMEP
The experiment can be described thus: PAI-1 inhibition studies: protection of tPA from inactivation by PAI-1, residual tPA enzymatic activity by indirect amidolytic assay. It is filed as biochemical. The conditions noted are these: 1.5 μg/ml PAI-1, 50 ng/ml tPA; for maintenance of tPA activity in the presence of PAI-1 (FIG. 1): 100 μg/ml peptide, one hour at 37° C.; for effect of peptide concentration on the maintenance of tPA activity in the presence of PAI-1 (FIG. 2): several peptide concentrations (30-120 μg/ml). The method, then:
In each case, peptide and PAI-1 were first mixed, followed by the addition of tPA. Final concentrations were: 100 μg/ml peptide, 1.5 μg/ml PAI-1 and 50 ng/ml tPA in phospate buffered saline containing 0.01% sodium azide and 0.01% Tween 80%. After incubation for one hour at 37° C., samples were examined for remaining tPA enzymatic activity. The error bars represent the range of duplicate measurements of the tPA enzymatic activity in μAU/min/min.
Results are expressed as the percentage of tPA enzymatic activity remaining after incubation with tPA, PAI-1 and peptide relative to that seen with tPA alone.
An indirect amidolytic assay for tPA activity was performed by a conventional method as described by Ranby and Wallen, Prog. Fibrinolytics 5, 233-235 (1981) and Ranby, Biochim. Biophys. Acta 740, 461-469 (1982) but with the following modifications. The assay mixture contained 50 μg/ml human glu-plasminogen, 1 mM plasmin substrate S-2251, 130 μg/ml fibrinogen fragment stimulator, and 0 to 20 ng/ml tPA sample in phosphate-buffered saline containing 0.01% sodium azide and 0.01% Tween 80 (PBSAT) in a final volume of 100 μl. The assay was performed in a 96-well microtitration plate at room temperature. Reaction mixtures were overlaid with 50 μl mineral oil to prevent evaporation. Periodic readings were taken at 405 nm and referenced at 650 nm using a Molecular Devices Vmax plate reader. The first derivative of absorbance with respect to time was calculated and the slope of a plot of dA/dt vs time was proportional to tPA activity. Results were expressed in absorbance units (μ AU/min^2) or as a percentage of control.
The effect of peptides on the inactivation of tPA by PAI-1 was measured by incubating 1.5 μg/ml PAI-1, 30-120 μg/ml peptide and 50 ng/ml tPA in PBSAT. PAI-1 and peptide were first mixed, followed by the addition of tPA. After one hour at 37° C., residual tPA enzymatic activity was measured either immediately or after the samples had been frozen and stored.
tPA was incubated with increasing concentrations of PAI-1 for one hour at 37° C. and the incubate was then assayed for residual tPA enzymatic activity.

Where no end group is shown, it is not given here.

For the substance “LGKHNYCRNPDGDAKPWCHVLKNRR-amide (LGKHNYCRNPDGDAKPWCHVLKNRR-NH2; cysteine pairing not given here) [Peptide 166, 25 amino acid synthetic peptide amide fragment of native human tPA]”, the “% Bound (binding of tPA to fibrin)” value in experiment [1] amounted to 57%. Further, in experiment [2], the “maintenance of tPA activity in the presence of PAI-1 (FIG. 1)” value (from here on “maintenance of tPA activity … (FIG. 1)”) was “no effect” and the “effect of peptide concentration on the maintenance of tPA activity in the presence of PAI-1 (FIG. 2)” value (“effect of peptide concentration” for short) is “no effect”.

With “NPDRDSKPWCYVFKAGKYSSEFCST-amide (NPDRDSKPWCYVFKAGKYSSEFCST-NH2; cysteine pairing not given here) [Peptide 158, 25 amino acid synthetic peptide amide fragment of native human tPA]”, the “% Bound (binding of tPA to fibrin)” value in experiment [1] stood at 53%. For the same substance, in experiment [2], the “maintenance of tPA activity … (FIG. 1)” value is given as “active but with a lesser effect” and the “effect of peptide concentration” value is listed as “steady, progressive increase in activity”.

With “VPVKSCSEPRCFNGGTCQQALYFSD-amide (VPVKSCSEPRCFNGGTCQQALYFSD-NH2; cysteine pairing not given here) [Peptide 148, 25 amino acid synthetic peptide amide fragment of native human tPA]”, the “% Bound (binding of tPA to fibrin)” value in experiment [1] turned out to be 50%. In experiment [2], the “maintenance of tPA activity … (FIG. 1)” value is “especially effective at maintaining tPA activity”; the “effect of peptide concentration” value is “rose dramatically and plateaued”.

Values taken from patent US5039791A, “Peptide fragments of tissue plasminogen activator” (Monsanto Company, priority 1989, dated 1991).
